Measured values from the supplement of paper PMC10724198.
± gives the standard deviation of the averaged measurements.

Tests used:
Saccharomyces cerevisiae [1] = assay: protein stability index of tFT-peptide fusion (C-terminal peptide) (PSI (0-1 scale)); higher = more stable (slower turnover); conditions: genetic background: wild type; temperature: 30 C
Saccharomyces cerevisiae [2] = assay: as above
Experimental: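 MPS profiling in S. cerevisiae of the tFT-X12 degron library: putative degron peptides plus stable controls, 12 aa, fused to the C-terminus of a sfGFP-mCherry timer. Cells are FACS-sorted into 8 mCherry/sfGFP bins and deep-sequenced. PSI runs from 0 (unstable) to 1 (stable). Backgrounds are wild type, das1Δ and doa10Δ at 30 °C, and wild type, das1Δ, cdc34-1 and cdc53-1 at 37 °C; 2-3 technical replicates each.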

[3] = genetic background: cdc34-1, temperature: 37 C
[4] = genetic background: cdc53-1, temperature: 37 C
[5] = genetic background: das1 deletion, temperature: 30 C
[6] = genetic background: das1 deletion, temperature: 37 C
[7] = genetic background: doa10 deletion, temperature: 30 C
[8] = genetic background: wild type, temperature: 30 C
[9] = genetic background: wild type, temperature: 37 C
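Note: PSI is a weighted mean of sequencing reads over stability bins, variants kept only with over 10 reads, mCherry proximal and sfGFP distal, peptide attached via GGGS linker.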

Row | Sequence | protein stability index (Saccharomyces cerevisiae [1]) | protein stability index (Saccharomyces cerevisiae [2]; [3]) | protein stability index (Saccharomyces cerevisiae [2]; [4]) | protein stability index (Saccharomyces cerevisiae [2]; [5]) | protein stability index (Saccharomyces cerevisiae [2]; [6]) | protein stability index (Saccharomyces cerevisiae [2]; [7]) | protein stability index (Saccharomyces cerevisiae [2]; [8]) | protein stability index (Saccharomyces cerevisiae [2]; [9])
1 | KKKTKYSKDKLC | 0.343 ± 0.035 | 0.607 ± 0.03 | 0.696 ± 0.025 | 0.662 ± 0.036 | 0.723 ± 0.021 | 0.191 ± 0.028 | 0.217 ± 0.013 | 0.456 ± 0.04
2 | YWRNYLVLVCKF | 0.359 ± 0.065 | 0.836 ± 0.04 | 0.794 ± 0.075 | 0.592 ± 0.023 | 0.778 ± 0.023 | 0.487 ± 0.07 | 0.481 ± 0.046 | 0.613 ± 0.024
3 | VAFFSVFYWLEC | 0.365 ± 0.023 | 0.287 ± 0.069 | 0.424 ± 0.066 | 0.299 ± 0.021 | 0.47 ± 0.033 | 0.261 ± 0.0032 | 0.29 ± 0.034 | 0.454 ± 0.018
4 | EMSIISVLRVIS | 0.369 ± 0.035 | 0.61 ± 0.013 | 0.641 ± 0.017 | 0.489 ± 0.02 | 0.651 ± 0.021 | 0.181 ± 0.011 | 0.218 ± 0.034 | 0.395 ± 0.015
5 | FFALFLPLACFC | 0.429 ± 0.013 | 0.4689 ± 0.0012 | 0.4432 ± 0.004 | 0.38 ± 0.031 | 0.4899 ± 0.0037 | 0.353 ± 0.023 | 0.386 ± 0.014 | 0.455 ± 0.0076
6 | PRSLHVLSRFLP | 0.691 ± 0.018 | 0.692 ± 0.06 | 0.7371 ± 0.0014 | 0.651 ± 0.017 | 0.763 ± 0.037 | 0.599 ± 0.048 | 0.606 ± 0.031 | 0.712 ± 0.02
7 | LWGVGRQRNIAS | 0.41 ± 0.013 | 0.684 ± 0.033 | 0.758 ± 0.015 | 0.655 ± 0.038 | 0.769 ± 0.021 | 0.291 ± 0.036 | 0.304 ± 0.018 | 0.582 ± 0.021
8 | CVVLCLFCWCML | 0.347 ± 0.048 | 0.358 ± 0.004 | 0.4266 ± 0.0042 | 0.314 ± 0.019 | 0.451 ± 0.007 | 0.32968 ± 0.00016 | 0.305 ± 0.021 | 0.425 ± 0.0082
9 | VCAFCLFFVPLP | 0.47 ± 0.013 | 0.5888 ± 0.00072 | 0.668 ± 0.023 | 0.425 ± 0.038 | 0.6497 ± 0.0021 | 0.3831 ± 0.0035 | 0.413 ± 0.022 | 0.593 ± 0.012
10 | RLVVSRNFYRLC | 0.304 ± 0.1 | 0.622 ± 0.054 | 0.723 ± 0.017 | 0.6318 ± 0.006 | 0.7235 ± 0.0012 | 0.125 ± 0.0022 | 0.135 ± 0.014 | 0.342 ± 0.0091
11 | AVLSFVLVRSVV | 0.471 ± 0.02 | 0.58 ± 0.052 | 0.619 ± 0.012 | 0.417 ± 0.026 | 0.604 ± 0.017 | 0.399 ± 0.031 | 0.417 ± 0.021 | 0.574 ± 0.0062
12 | SLIDPLGNLFNS | 0.752 ± 0.041 | 0.71 ± 0.015 | 0.756 ± 0.038 | 0.682 ± 0.039 | 0.756 ± 0.028 | 0.672 ± 0.024 | 0.678 ± 0.014 | 0.72 ± 0.018
13 | FCALWLCFRLMV | 0.174 ± 0.037 | 0.35 ± 0.024 | 0.403 ± 0.014 | 0.319 ± 0.028 | 0.476 ± 0.03 | 0.14 ± 0.014 | 0.149 ± 0.017 | 0.265 ± 0.028
14 | CFYSRTIILEHC | 0.328 ± 0.015 | 0.503 ± 0.1 | 0.506 ± 0.0072 | 0.464 ± 0.0086 | 0.5003 ± 0.0025 | 0.23 ± 0.015 | 0.233 ± 0.028 | 0.34 ± 0.015
15 | YFIVVSWFLVCW | 0.184 ± 0.005 | 0.0981 ± 0.019 | 0.199 ± 0.022 | 0.114 ± 0.029 | 0.218 ± 0.0028 | 0.072 ± 0.017 | 0.121 ± 0.0079 | 0.168 ± 0.029
16 | PYLSAPLVATLS | 0.3853 ± 0.0035 | 0.378 ± 0.014 | 0.424 ± 0.025 | 0.274 ± 0.057 | 0.474 ± 0.0082 | 0.234 ± 0.012 | 0.28 ± 0.045 | 0.426 ± 0.0049
17 | VGASLVVIAIGV | 0.466 ± 0.032 | 0.5122 ± 0.0012 | 0.5401 ± 0.0048 | 0.377 ± 0.034 | 0.5445 ± 0.0033 | 0.3442 ± 0.0029 | 0.387 ± 0.012 | 0.5181 ± 0.0048
18 | AYPAHQLLVSCL | 0.482 ± 0.028 | 0.509 ± 0.012 | 0.511 ± 0.021 | 0.405 ± 0.026 | 0.5435 ± 0.0014 | 0.351 ± 0.016 | 0.384 ± 0.038 | 0.5 ± 0.024
19 | GLAVLSWLYIEL | 0.487 ± 0.013 | 0.557 ± 0.022 | 0.57162 ± 0.00039 | 0.457 ± 0.031 | 0.598 ± 0.013 | 0.445 ± 0.019 | 0.461 ± 0.014 | 0.57036 ± 0.0001
20 | GRVYLLGLYMSF | 0.373 ± 0.0094 | 0.453 ± 0.041 | 0.485 ± 0.026 | 0.306 ± 0.083 | 0.525 ± 0.064 | 0.3887 ± 0.0029 | 0.338 ± 0.026 | 0.481 ± 0.037

Row | Sequence | protein stability index (Saccharomyces cerevisiae [1]) | protein stability index (Saccharomyces cerevisiae [2]; [3]) | protein stability index (Saccharomyces cerevisiae [2]; [4]) | protein stability index (Saccharomyces cerevisiae [2]; [5]) | protein stability index (Saccharomyces cerevisiae [2]; [6]) | protein stability index (Saccharomyces cerevisiae [2]; [7]) | protein stability index (Saccharomyces cerevisiae [2]; [8]) | protein stability index (Saccharomyces cerevisiae [2]; [9])
21 | CYCSIGCLIIFS | 0.378 ± 0.074 | 0.2261 ± 0.0021 | 0.374 ± 0.023 | 0.238 ± 0.033 | 0.446 ± 0.0093 | 0.206 ± 0.0053 | 0.22 ± 0.023 | 0.4089 ± 0.003
22 | GFCFVFVFQCFF | 0.394 ± 0.049 | 0.339 ± 0.0077 | 0.451 ± 0.034 | 0.288 ± 0.031 | 0.431 ± 0.0031 | 0.267 ± 0.0043 | 0.276 ± 0.039 | 0.402 ± 0.014
23 | GCVLVFFLRLDL | 0.49 ± 0.072 | 0.4328 ± 0.0006 | 0.538 ± 0.067 | 0.354 ± 0.034 | 0.557 ± 0.034 | 0.3466 ± 0.0014 | 0.365 ± 0.0072 | 0.562 ± 0.01
24 | ALEIIRLSHRLC | 0.127 ± 0.011 | 0.498 ± 0.048 | 0.689 ± 0.022 | 0.618 ± 0.008 | 0.731 ± 0.009 | 0.0821 ± 0.0079 | 0.0791 ± 0.016 | 0.113 ± 0.0018
25 | LVLLRLSSLTIF | 0.404 ± 0.0068 | 0.627 ± 0.01 | 0.699 ± 0.0095 | 0.561 ± 0.018 | 0.707 ± 0.012 | 0.269 ± 0.011 | 0.314 ± 0.011 | 0.549 ± 0.034
26 | QWTVRNQGVMQR | 0.73 ± 0.017 | 0.699 ± 0.018 | 0.743 ± 0.0096 | 0.652 ± 0.012 | 0.754 ± 0.016 | 0.65 ± 0.036 | 0.681 ± 0.051 | 0.721 ± 0.026
27 | VRDQGWILNMLL | 0.485 ± 0.016 | 0.7266 ± 0.007 | 0.771 ± 0.024 | 0.651 ± 0.032 | 0.7546 ± 0.0011 | 0.3707 ± 0.0019 | 0.422 ± 0.028 | 0.639 ± 0.023
28 | RGGPPPCPLLAA | 0.51 ± 0.034 | 0.68 ± 0.036 | 0.698 ± 0.032 | 0.585 ± 0.012 | 0.688 ± 0.0092 | 0.571 ± 0.035 | 0.584 ± 0.011 | 0.664 ± 0.013
29 | YHFRLLVTCCPC | 0.321 ± 0.0033 | 0.273 ± 0.0031 | 0.325 ± 0.0097 | 0.264 ± 0.016 | 0.38 ± 0.01 | 0.225 ± 0.0037 | 0.257 ± 0.0088 | 0.351 ± 0.015
30 | LPPYPPPVPILI | 0.493 ± 0.017 | 0.449 ± 0.0069 | 0.455 ± 0.021 | 0.362 ± 0.031 | 0.519 ± 0.0006 | 0.322 ± 0.0038 | 0.39 ± 0.026 | 0.489 ± 0.0053
31 | LRLFIFLLFSVF | 0.198 ± 0.013 | 0.246 ± 0.025 | 0.282 ± 0.023 | 0.268 ± 0.034 | 0.39 ± 0.012 | 0.19 ± 0.0081 | 0.175 ± 0.015 | 0.249 ± 0.013
32 | FLFFCGWVSLFG | 0.424 ± 0.024 | 0.408 ± 0.024 | 0.4636 ± 0.0024 | 0.394 ± 0.033 | 0.4966 ± 0.0014 | 0.333 ± 0.0056 | 0.364 ± 0.023 | 0.479 ± 0.025
33 | RGLWAAIPRKCT | 0.358 ± 0.028 | 0.669 ± 0.04 | 0.74108 ± 0.00026 | 0.645 ± 0.0061 | 0.754 ± 0.016 | 0.179 ± 0.027 | 0.223 ± 0.023 | 0.548 ± 0.02
34 | YPSASLLPLFSC | 0.171 ± 0.004 | 0.594 ± 0.06 | 0.733 ± 0.017 | 0.622 ± 0.014 | 0.748 ± 0.015 | 0.126 ± 0.018 | 0.136 ± 0.017 | 0.184 ± 0.016
35 | GKVSSFVLFHIS | 0.301 ± 0.013 | 0.649 ± 0.039 | 0.761 ± 0.033 | 0.622 ± 0.031 | 0.7502 ± 0.0042 | 0.202 ± 0.024 | 0.234 ± 0.021 | 0.475 ± 0.0066
36 | VIQKKKKNKITS | 0.346 ± 0.033 | 0.617 ± 0.004 | 0.729 ± 0.014 | 0.65 ± 0.022 | 0.7265 ± 0.0018 | 0.197 ± 0.011 | 0.238 ± 0.013 | 0.408 ± 0.016
37 | KLVFLLCLNKVF | 0.243 ± 0.037 | 0.51474 ± 0.00047 | 0.5887 ± 0.0014 | 0.439 ± 0.017 | 0.63 ± 0.0047 | 0.173 ± 0.018 | 0.199 ± 0.013 | 0.29 ± 0.0089
38 | CFVWFSVVLLFA | 0.194 ± 0.0056 | 0.109 ± 0.015 | 0.159 ± 0.0066 | 0.134 ± 0.028 | 0.227 ± 0.0053 | 0.136 ± 0.0019 | 0.117 ± 0.016 | 0.202 ± 0.014
39 | FLPGEAVFVYCR | 0.4334 ± 0.0032 | 0.619 ± 0.016 | 0.616 ± 0.037 | 0.372 ± 0.026 | 0.627 ± 0.011 | 0.365 ± 0.017 | 0.391 ± 0.028 | 0.64997 ± 0.00056
